Data published in US20230272011A1 (AVACTA LIFE SCIENCES, published 2023).
Substitutions are numbered along the chain they refer to. In names and notes the source's numbering stands. Like-named read-outs stand apart in the source and are kept apart here.

Legend:
[1] = biological target: T1, human serum albumin (human, UniProt P02768 25-609); test: binding ELISA on coated HSA, pH 7.4
T1 construct: mature; Bought protein; biotinylated in the Octet and HTRF assays; also called HSA; HuSA
Procedure: After saturation with 5% PBS Casein pH 7.5, plates were washed and a dilution of AFFIMER® polypeptides or controls were incubated for 90 minutes. Plates were then washed, and a biotinylated polyclonal antibody anti-cystatin A (R&D Systems) was added for 1 hour. Plates were washed and AFFIMER® polypeptides were detected using streptavidin-HRP. After a last washing step, TMB was added for the development of the experiment and the plates were read at 450 nm.

[2] = biological target: T1, human serum albumin; test: SPR (Biacore), immobilised HSA, Affimer analyte
Procedure: Affinities for mouse, human, and cynomolgus serum were also measured at pH 7.4 for four (4) AFFIMER® binders using surface plasmon resonance (SPR) (FIG. 5, Table 5). […] A concentration titration of AFFIMER® monomers was run as analyte at a flow rate of 30 μl/min or 60 μl/min. Fc2-1, Fc3-1 and Fc4-1 kinetic data was blank subtracted and fit to a 1:1 Langmuir binding model (BIAcore Evalution software; GE) to calculate KD values. […]

[3] = biological target: T2, human PD-L1-Fc (R&D Systems) chimeric protein (human, UniProt Q9NZQ7 19-239); test: binding ELISA on coated human PD-L1-Fc (table on the sheet is headed 'IC50 (nM)'; the text calls these values EC50)
T2 construct: Bought reagent; also called rhPD-L1-Fc; huPD-L1; Fc part of the bought chimera not given, not described
T2 sequence (Q9NZQ7 19-239, change not shown): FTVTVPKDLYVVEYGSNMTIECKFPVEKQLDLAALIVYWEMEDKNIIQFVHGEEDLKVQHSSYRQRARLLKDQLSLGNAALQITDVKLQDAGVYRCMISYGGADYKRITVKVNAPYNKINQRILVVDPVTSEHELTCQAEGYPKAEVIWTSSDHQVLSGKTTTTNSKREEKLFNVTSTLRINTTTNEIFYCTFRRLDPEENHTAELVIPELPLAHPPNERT
Procedure: Briefly, human PD-L1-Fc (R&D Systems) chimeric protein was coated on 96 well plates at […] in carbonate buffer. After saturation with 5% casein/PBS buffer, the plates were washed and a dilution of AFFIMER® polypeptides or controls were incubated for 90 minutes. Plates were then washed and a biotinylated polyclonal antibody anti-cystatin A (R&D Systems) was added for 1 hour. Plates were washed and AFFIMER® polypeptides were detected using streptavidin-HRP. After a last washing step, TMB was added for the development of the experiment and plates were read at 450 nm.

[4] = biological target: T3, cynomolgus serum albumin (cynomolgus); test: BLI (Octet), biotinylated albumin on SA sensor, pH 6.0
T3 construct: also called CSA; cyno serum albumin
T3 sequence (A2V9Z4 25-608): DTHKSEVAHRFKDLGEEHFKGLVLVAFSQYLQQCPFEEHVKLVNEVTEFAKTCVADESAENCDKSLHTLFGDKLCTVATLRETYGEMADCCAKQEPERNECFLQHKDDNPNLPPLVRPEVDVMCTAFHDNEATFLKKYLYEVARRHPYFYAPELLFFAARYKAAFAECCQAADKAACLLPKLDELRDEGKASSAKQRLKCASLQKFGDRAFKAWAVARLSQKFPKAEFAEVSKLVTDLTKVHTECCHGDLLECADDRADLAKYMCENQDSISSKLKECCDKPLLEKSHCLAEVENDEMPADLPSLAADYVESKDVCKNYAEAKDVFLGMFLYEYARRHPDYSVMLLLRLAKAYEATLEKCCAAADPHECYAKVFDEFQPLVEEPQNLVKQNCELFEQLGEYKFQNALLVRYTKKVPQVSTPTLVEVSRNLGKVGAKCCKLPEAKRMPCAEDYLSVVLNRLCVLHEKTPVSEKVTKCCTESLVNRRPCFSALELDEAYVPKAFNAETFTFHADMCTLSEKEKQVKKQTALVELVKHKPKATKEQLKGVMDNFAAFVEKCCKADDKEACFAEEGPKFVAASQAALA
Procedure: (§1) Biotinylated antigen was captured onto SA sensors at 1 μg/ml for 600 seconds in a buffer comprising PBS-T (0.01% Tween 20)+1% casein at either pH 6.0 or 7.4. Association was carried out for 300 seconds and dissociation for 600 seconds, and regeneration was performed using 10 mM glycine pH 1.5 (GE Healthcare) for 3×5 seconds. All steps were carried out at 1000 rpm and 25° C. Purified AFFIMER® polypeptide in two-fold serial dilutions was analyzed at a starting concentration of approximately 10× K_{D value}. Kinetics analyses were carried out using the Octet data analysis software, subtracting the reference sensor (loaded with antigen), aligning the Y-axis to baseline, and using inter-step correction to align association to dissociation. Savitzky-Golay filtering was applied and the data processed. Analysis of the data was carried out with a 1:1 model, global fit, Rₘₐₓ unlinked by sensor.

[5] = biological target: T1, human serum albumin; test: as above
Procedure: as §1

[6] = biological target: T4, mouse serum albumin (mouse, UniProt P07724 25-608); test: as above
T4 construct: also called MSA
T4 sequence (P07724 25-608 limits assumed): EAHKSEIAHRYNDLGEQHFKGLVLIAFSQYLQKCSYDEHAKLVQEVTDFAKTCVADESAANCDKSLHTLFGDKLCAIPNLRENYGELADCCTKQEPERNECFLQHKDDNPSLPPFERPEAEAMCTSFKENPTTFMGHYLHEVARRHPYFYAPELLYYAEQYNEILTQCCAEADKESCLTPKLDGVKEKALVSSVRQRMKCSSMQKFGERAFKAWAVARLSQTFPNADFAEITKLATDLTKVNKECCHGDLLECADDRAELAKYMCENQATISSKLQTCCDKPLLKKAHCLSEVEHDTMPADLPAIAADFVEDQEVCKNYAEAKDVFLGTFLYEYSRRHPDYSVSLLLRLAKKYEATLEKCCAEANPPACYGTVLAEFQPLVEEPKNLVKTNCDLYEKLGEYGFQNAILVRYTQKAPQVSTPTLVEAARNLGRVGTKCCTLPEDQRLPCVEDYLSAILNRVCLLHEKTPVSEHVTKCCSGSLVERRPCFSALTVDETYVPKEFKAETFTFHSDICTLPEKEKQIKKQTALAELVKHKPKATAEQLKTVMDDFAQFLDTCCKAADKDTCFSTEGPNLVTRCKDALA
Procedure: as §1

[7] = biological target: T3, cynomolgus serum albumin; test: BLI (Octet), biotinylated albumin on SA sensor, pH 7.4
Procedure: as §1

[8] = biological target: T1, human serum albumin; test: as above
Procedure: as §1

[9] = biological target: T1, human serum albumin; test: SPR (Biacore) response to HSA, pH 7.4
Description: (§2) Final clones were sequence-verified, produced from E. coli, and affinity purified as described in Example 3.

[10] = biological target: T1, human serum albumin; test: SPR (Biacore) binding response to HSA at pH 7.4, Affimer at 50 nM
Description: as §2

[11] = biological target: T1, human serum albumin; test: SPR (Biacore), immobilised HSA, Affimer analyte; remark: listed apart in the source
[12] = biological target: T2, human PD-L1-Fc (R&D Systems) chimeric …; test: SPR (Biacore T200), PD-L1-Fc amine-coupled to CM5, Affimer analyte
Procedure: (§3) ILF dimer production from E. coli was performed as described in Example 3. Briefly, protein was purified using three stages: affinity capture, IEX, and preparative SEC. […] To analyze PD-L1-Fc binding kinetics, a Biacore T200 kinetic analysis was performed using running buffer HBS-EP+ and series S sensor CM5 (GE Healthcare) chip Fc2 immobilized with PD-L1-Fc (R&D Systems) in 10 mM sodium acetate pH 4.0 using amine coupling reagents (GE Healthcare). The concentration titration of ILF AFFIMER® polypeptides was run as analyte at a flow rate of 30 μl/min. […] with 3 mM NaOH (GE healthcare) for 20 seconds at 20 μl/min flow rate. The Fc2-1 data blank was subtracted and fit to a 1:1 Langmuir binding model (Biacore evaluation software; GE) to calculate an apparent KD value.

[13] = biological target: T2, human PD-L1-Fc (R&D Systems) chimeric …; test: SPR (Biacore T200), PD-L1-Fc amine-coupled to CM5, Affimer analyte; apparent KD
Procedure: as §3

[14] = biological target: T2, human PD-L1-Fc (R&D Systems) chimeric …; test: binding ELISA on coated human PD-L1 Fc ('Anti-PD-L1 ELISA')
Procedure: Briefly, human PD-L1 Fc (R&D Systems) chimeric protein was coated onto 96 well plates at 0.5 μg/mL in carbonate buffer. After saturation with 5% casein/PBS buffer, plates were washed and a dilution of conjugated AFFIMER® polypeptide or unconjugated control were incubated for 90 minutes. Plates were then washed, a biotinylated polyclonal anti-cystatin A antibody (R&D Systems) added, and the plates incubated for 1 hour. Plates were washed and bound AFFIMER® polypeptide was detected using streptavidin-HRP. After a last washing step, TMB was added and the plate was read at 450 nm.

B1: AVA04-251 XT16 (designed binder)
chain: MIPRGLSEAKPATPEIQEIVDKVKPQLEEKTNETYGKLEAVQYKTQVLANFFQRRWPGSTNYYIKVRAGDNKYMHLKVFNGPWKFRNTDRGADRVLTGYQVDKNKDDELTGFAEAAAKEAAAKEAAAKEAAAKEAAAKEAAAKMIPRGLSEAKPATPEIQEIVDKVKPQLEEKTNETYGKLEAVQYKTQVLAREGRQDWVLSTNYYIKVRAGDNKYMHLKVFNGPWVPFPHQQLADRVLTGYQVDKNKDDELTGFAEAAAKEAAAKEAAAKEAAAKEAAAKEAAAKMIPRGLSEAKPATPEIQEIVDKVKPQLEEKTNETYGKLEAVQYKTQVLAREGRQDWVLSTNYYIKVRAGDNKYMHLKVFNGPWVPFPHQQLADRVLTGYQVDKNKDDELTGFHHHHHH
Work on B1 yielded an EC50 [1] of 0.059 nM, a Kd [2] of 3.95 nM and a koff [2] of 0.00324 s⁻¹. For the same binder, the kon [2] was 821000 M⁻¹ s⁻¹ and the EC50 [3] was 0.11 nM.

B2: HSA-22 (designed binder)
chain: MIPRGLSEAKPATPEIQEIVDKVKPQLEEKTNETYGKLEAVQYKTQVLANWYQQRWPGSTNYYIKVRAGDNKYMHLKVFNGPWHNYGESSGADRVLTGYQVDKNKDDELTGFHHHHHH
B2 was tested, and the Kd [4] was 146 nM, the Kd [5] was 44.7 nM and the Kd [6] was 334 nM. For the same binder, the Kd [7] was 348 nM and the Kd [8] was 152 nM.

B3: HSA-41 F51A (designed binder)
chain: B2 chain with W51A, Y52F, Q54R, H84K, N85F, Y86R, G87N, E88T, S89D, S90R
For B3, the binding result [9] was “no binding (tested: 50 nM)” and the “binding response” value [10] was 2.8.

B4: HSA-41 F52A (designed binder)
chain: B2 chain with W51F, Y52A, Q54R, H84K, N85F, Y86R, G87N, E88T, S89D, S90R
B4 was tested, and the binding result [9] was “no binding (tested: 50 nM)” and the “binding response” value [10] was 2.2.

B5: HSA-41 R55A (designed binder)
chain: MIPRGLSEAKPATPEIQEIVDKVKPQLEEKTNETYGKLEAVQYKTQVLANFFQRAWPGSTNYYIKVRAGDNKYMHLKVFNGPWKFRNTDRGADRVLTGYQVDKNKDDELTGFHHHHHH
In the case of B5, the binding result [9] is reported as “no binding (tested: 50 nM)” and the “binding response” value [10] is reported as 2.9.

B6: HSA-41 W56A (designed binder)
chain: B5 chain with A55R, W56A
For B6, the binding result [9] was “no binding (tested: 50 nM)” and the “binding response” value [10] was 2.6.

B7: HSA-41 W83A (designed binder)
chain: B5 chain with A55R, W83A
With B7 the binding result [9] was “no binding (tested: 50 nM)” and the “binding response” value [10] was 2.9.

B8: AVA04-261 XT10 (designed binder)
chain: MIPRGLSEAKPATPEIQEIVDKVKPQLEEKTNETYGKLEAVQYKTQVLAHAYGPRDWDSTNYYIKVRAGDNKYMHLKVFNGPPADHVLEEAADRVLTGYQVDKNKDDELTGFAEAAAKEAAAKEAAAKEAAAKEAAAKEAAAKMIPRGLSEAKPATPEIQEIVDKVKPQLEEKTNETYGKLEAVQYKTQVLANFFQRRWPGSTNYYIKVRAGDNKYMHLKVFNGPWKFRNTDRGADRVLTGYQVDKNKDDELTGFHHHHHH
Work on B8 yielded a Kd [11] of 9.7 nM, a koff [11] of 0.00291 s⁻¹ and a kon [11] of 299000 M⁻¹ s⁻¹. For the same binder, the koff [12] was 0.00826 s⁻¹, the kon [12] was 875000 M⁻¹ s⁻¹ and the Kd [13] was 9.44 nM.

B9: HSA-37 (designed binder)
chain: MIPRGLSEAKPATPEIQEIVDKVKPQLEEKTNETYGKLEAVQYKTQVLAGFWASKWPGSTNYYIKVRAGDNKYMHLKVFNGPFTAVSKKDAADRVLTGYQVDKNKDDELTGFHHHHHH
B9 was tested, and the Kd [4] was 231 nM, the Kd [5] was 136 nM and the Kd [6] was 834 nM. It also gave a Kd [7] of 221 nM and a Kd [8] of 113 nM.

B10: AVA04-251 BH-800 (designed binder)
chain: MIPRGLSEAKPATPEIQEIVDKVKPQLEEKTNETYGKLEAVQYKTQVLAREGRQDWVLSTNYYIKVRAGDNKYMHLKVFNGPWVPFPHQQLADRVLTGYQVDKNKDDELTGFAEAAAKEAAAKEAAAKEAAAKEAAAKEAAAKMIPRGLSEAKPATPEIQEIVDKVKPQLEEKTNETYGKLEAVQYKTQVLAREGRQDWVLSTNYYIKVRAGDNKYMHLKVFNGPWVPFPHQQLADRVLTGYQVDKNKDDELTGFC
modifications: IRDye 800CW conjugated with maleimide chemistry (C-terminal cysteine construct)
notes: E. coli product
In the case of B10, the “EC50 (read off the curve)” value [14] is reported as roughly 0.04 nM.

B11: AVA04-251 BH-Cys (designed binder)
single chain: B10 chain
B11 was tested, and the “EC50 (read off the curve)” value [14] was roughly 0.04 nM.

B12: AVA04-261 XT9 (designed binder)
chain: MIPRGLSEAKPATPEIQEIVDKVKPQLEEKTNETYGKLEAVQYKTQVLAHAYGPRDWDSTNYYIKVRAGDNKYMHLKVFNGPPADHVLEEAADRVLTGYQVDKNKDDELTGFGGGGSGGGGSGGGGSGGGGSGGGGSGGGGSMIPRGLSEAKPATPEIQEIVDKVKPQLEEKTNETYGKLEAVQYKTQVLANFFQRRWPGSTNYYIKVRAGDNKYMHLKVFNGPWKFRNTDRGADRVLTGYQVDKNKDDELTGFHHHHHH
B12 gave a Kd [11] of 13.3 nM, a koff [11] of 0.00357 s⁻¹ and a kon [11] of 269000 M⁻¹ s⁻¹. It also gave a koff [12] of 0.00707 s⁻¹, a kon [12] of 395000 M⁻¹ s⁻¹ and a Kd [13] of 17.9 nM.

B13: AVA04-236 XT8 (designed binder)
chain: MIPRGLSEAKPATPEIQEIVDKVKPQLEEKTNETYGKLEAVQYKTQVLAKEHGPDSWWSTNYYIKVRAGDNKYMHLKVFNGPQEKNQWVEEADRVLTGYQVDKNKDDELTGFAEAAAKEAAAKEAAAKEAAAKEAAAKEAAAKMIPRGLSEAKPATPEIQEIVDKVKPQLEEKTNETYGKLEAVQYKTQVLANFFQRRWPGSTNYYIKVRAGDNKYMHLKVFNGPWKFRNTDRGADRVLTGYQVDKNKDDELTGFHHHHHH
B13 showed a Kd [11] of 9.5 nM, a koff [11] of 0.00252 s⁻¹ and a kon [11] of 267000 M⁻¹ s⁻¹. It also gave a koff [12] of 0.00695 s⁻¹, a kon [12] of 1.52e+06 M⁻¹ s⁻¹ and a Kd [13] of 4.57 nM.

B14: AVA04-269 XT12 (designed binder)
chain: MIPRGLSEAKPATPEIQEIVDKVKPQLEEKTNETYGKLEAVQYKTQVLAKEYGPEEWWSTNYYIKVRAGDNKYMHLKVFNGPGDYEQVLIHADRVLTGYQVDKNKDDELTGFAEAAAKEAAAKEAAAKEAAAKEAAAKEAAAKMIPRGLSEAKPATPEIQEIVDKVKPQLEEKTNETYGKLEAVQYKTQVLANFFQRRWPGSTNYYIKVRAGDNKYMHLKVFNGPWKFRNTDRGADRVLTGYQVDKNKDDELTGFHHHHHH
B14 gave a Kd [11] of 12.9 nM, a koff [11] of 0.00228 s⁻¹ and a kon [11] of 177000 M⁻¹ s⁻¹. The koff [12] was 0.00431 s⁻¹, the kon [12] was 1.14e+06 M⁻¹ s⁻¹ and the Kd [13] was 3.8 nM.
